pEC50, pIC50, pKd: −log10 of the molar value. Like-named read-outs stand apart in the source and are kept apart here.
Legend:
[1] = biological target: AE.A244 gp120 (HIV-1)
[2] = biological target: A.Q23 V1V2 tags (HIV-1); assay: ELISA
[3] = biological target: AE.A244 V1V2 Tags (HIV-1); assay: ELISA
[4] = biological target: AE.A244 gD+ gp120 (HIV-1); assay: ELISA
[5] = biological target: AE.A244 gp120 (HIV-1); assay: ELISA
[6] = biological target: AE.A244 gp120 delta 11 (HIV-1); assay: ELISA
[7] = biological target: B.6240 gp140C (HIV-1); assay: ELISA
[8] = biological target: AE.A244 V1V2 Tags (HIV-1); assay: ELISA; remark: listed apart in the source
[9] = biological target: AE.427299 gp120D11 (HIV-1); assay: ELISA
[10] = biological target: AE.427299 gp120D11/Q169K (HIV-1); assay: ELISA
[11] = biological target: AE.A244 gp120 D11/K169V/V172E/H173Y (HIV-1); assay: ELISA
[12] = biological target: AE.A244 gp120 delta 11 (HIV-1); assay: ELISA; remark: listed apart in the source
[13] = biological target: AE.A244 gp120D11/K169V (HIV-1); assay: ELISA
[14] = biological target: AE.A244 V1V2 Tags (HIV-1)
[15] = biological target: Env of 1051.C22.LucR.T2A.ecto virus (HIV-1); assay: cell-based or functional assay
[16] = biological target: Env of 427299.c12 virus (HIV-1); assay: cell-based or functional assay
[17] = biological target: Env of 427299.c12.H81L virus (HIV-1); assay: cell-based or functional assay
[18] = biological target: Env of 427299.c12.KL.Q169K/I181L virus (HIV-1); assay: cell-based or functional assay
[19] = biological target: Env of 427299.c12.Q169K virus (HIV-1); assay: cell-based or functional assay
[20] = biological target: Env of 644039.c01b-CM235LucR.T2A.11 virus (HIV-1); assay: cell-based or functional assay
[21] = biological target: Env of 703357.2.I181L virus (HIV-1); assay: cell-based or functional assay
[22] = biological target: Env of 703357.2.Q169K virus (HIV-1); assay: cell-based or functional assay
[23] = biological target: Env of 703357.2.Q169KI181L virus (HIV-1); assay: cell-based or functional assay
[24] = biological target: Env of 703357.2.Q169KR170Q virus (HIV-1); assay: cell-based or functional assay
[25] = biological target: Env of 703357.2.Q169KR170QI181L virus (HIV-1); assay: cell-based or functional assay
[26] = biological target: Env of 703357.c02 virus (HIV-1); assay: cell-based or functional assay
[27] = biological target: Env of 92TH023 K169Q virus (HIV-1); assay: cell-based or functional assay
[28] = biological target: Env of AE.92TH023 virus (HIV-1); assay: cell-based or functional assay
[29] = biological target: Env of AE.CM244 virus (HIV-1); assay: cell-based or functional assay
[30] = biological target: Env of CM235-2.LucR.T2A.ecto virus (HIV-1); assay: cell-based or functional assay
[31] = biological target: Env of CM244.c01.ETH2220LucR.T2A.4 virus (HIV-1); assay: cell-based or functional assay
[32] = biological target: Env of CM244NW.4.K169Q virus (HIV-1); assay: cell-based or functional assay
[33] = biological target: Env of CM244NW.6.I181L virus (HIV-1); assay: cell-based or functional assay
[34] = biological target: Env of Ce1086_B2.LucR.T2A.ecto virus (HIV-1); assay: cell-based or functional assay
[35] = biological target: Env of Ce1176_A3.LucR.T2A.ecto virus (HIV-1); assay: cell-based or functional assay
[36] = biological target: Env of Du151.2.LucR.T2A.ecto virus (HIV-1); assay: cell-based or functional assay
[37] = biological target: Env of Du422.1.LucR.T2A.ecto virus (HIV-1); assay: cell-based or functional assay
[38] = biological target: Env of RHPA.LucR.T2A.ecto virus (HIV-1); assay: cell-based or functional assay
[39] = biological target: Env of SC22.3C2.LucR.T2A.ecto virus (HIV-1); assay: cell-based or functional assay
[40] = biological target: Env of TH023.6.I181L virus (HIV-1); assay: cell-based or functional assay
[41] = biological target: Env of WITO.LucR.T2A.ecto virus (HIV-1); assay: cell-based or functional assay
[42] = biological target: 92TH023 V2 cyclic peptide (HIV-1); assay: RPMI 8866 cell adhesion to coated peptide, mAb 10 ug/ml
[43] = biological target: B.JRFL gp140CF (HIV-1) (UniProt P20871); assay: ELISA
[44] = biological target: C.CAP206 gp140, natively deglycosylated (HIV-1); assay: ELISA
[45] = biological target: Env of AE.CM235 on infected CD4+ T cells (HIV-1)
[46] = biological target: Env of AE.CM235 on infected CD4+ T cells (HIV-1); assay: flow cytometry on IMC CM235-infected CD4+ T cells, 10 ug/ml, negative control
[47] = biological target: α4β7 on RPMI 8866 cells (UniProt P13612)
[48] = biological target: α4β7 on RPMI 8866 cells (UniProt P13612); assay: cells preincubated with ACT-1, adhesion to MADCAM-1 (competitor; 2 ug/ml)
[49] = biological target: AE.A244 gp120 N160K (HIV-1); assay: ELISA
[50] = biological target: C.1086 gp120 Δ7 (HIV-1); assay: ELISA
[51] = biological target: J08 C.97ZA012V1V2N156QN160Q (HIV-1); assay: ELISA

CH59 (antibody), sequence (VH): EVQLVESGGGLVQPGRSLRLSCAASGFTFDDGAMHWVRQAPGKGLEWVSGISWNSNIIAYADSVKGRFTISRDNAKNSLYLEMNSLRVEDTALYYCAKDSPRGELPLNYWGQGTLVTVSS
CH59 (antibody), sequence (VL): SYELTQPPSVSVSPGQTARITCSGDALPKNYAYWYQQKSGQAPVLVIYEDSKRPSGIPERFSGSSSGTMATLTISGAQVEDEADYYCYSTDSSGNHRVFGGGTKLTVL
CH01 (antibody), sequence (heavy, form in doubt): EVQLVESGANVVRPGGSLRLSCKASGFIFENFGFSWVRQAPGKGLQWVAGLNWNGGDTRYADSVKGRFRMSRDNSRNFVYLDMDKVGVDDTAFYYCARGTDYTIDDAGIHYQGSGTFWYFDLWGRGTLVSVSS
CH01 (antibody), sequence (light, form in doubt): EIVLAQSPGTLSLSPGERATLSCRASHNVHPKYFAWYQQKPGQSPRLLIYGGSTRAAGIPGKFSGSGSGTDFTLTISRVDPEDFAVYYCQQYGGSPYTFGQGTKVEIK

CH01 (antibody) gave a pIC50 [1] of 7.00 to 8.00, a pEC50 [2] of less than 7.18 and a pEC50 [3] of 8.05. For the same substance, the pEC50 [4] was 9.05, the pEC50 [5] was 8.89 and the pEC50 [6] was 9.33. For the same substance, the pEC50 [7] was less than 6.18, the pEC50 [8] was 8.77 and the EC50 [9] was greater than 10 µg/mL. The EC50 [10] was greater than 10 µg/mL, the EC50 [11] was 0.93 µg/mL and the EC50 [12] was 0.35 µg/mL. The EC50 [13] was 0.13 µg/mL, the pKd [14] was 6.48 and the koff [14] was 0.0076 s⁻¹. For the same substance, the kon [14] was 23000 M⁻¹ s⁻¹, the ID50 assayed in A3R5.7 cells, 1051.C22.LucR.T2A.ecto [15] was greater than 25 µg/mL and the ID50 assayed in TZM-bl cells, 427299.c12 [16] was 0.09 µg/mL. The ID50 assayed in TZM-bl cells, 427299.c12.H81L [17] was 0.16 µg/mL, the ID50 assayed in TZM-bl cells, 427299.c12.KL.Q169K/I181L [18] was 0.15 µg/mL and the ID50 assayed in TZM-bl cells, 427299.c12.Q169K [19] was 0.18 µg/mL. It also gave an ID50 assayed in A3R5.7 cells, 644039.c01b-CM235LucR.T2A.11 [20] greater than 25 µg/mL, an ID50 assayed in TZM-bl cells, 703357.2.I181L [21] greater than 25 µg/mL and an ID50 assayed in TZM-bl cells, 703357.2.Q169K [22] greater than 25 µg/mL. For the same substance, the ID50 assayed in TZM-bl cells, 703357.2.Q169KI181L [23] was greater than 25 µg/mL, the ID50 assayed in TZM-bl cells, 703357.2.Q169KR170Q [24] was greater than 25 µg/mL and the ID50 assayed in TZM-bl cells, 703357.2.Q169KR170QI181L [25] was greater than 25 µg/mL. The ID50 assayed in TZM-bl cells, 703357.c02 [26] was greater than 25 µg/mL, the ID50 assayed in TZM-bl cells, TH023.6.K169Q [27] was 22.8 µg/mL and the ID50 assayed in TZM-bl cells, TH023.6 [28] was greater than 25 µg/mL. The ID50 assayed in TZM-bl cells, CM244.ec1 [29] was 0.02 µg/mL, the ID50 assayed in A3R5.7 cells, CM235-2.LucR.T2A.ecto [30] was 0.04 µg/mL and the ID50 assayed in A3R5.7 cells, CM244.c01.ETH2220LucR.T2A.4 [31] was 0.33 µg/mL. It also gave an ID50 assayed in TZM-bl cells, CM244NW.4.K169Q [32] of 0.05 µg/mL, an ID50 assayed in TZM-bl cells, CM244NW.6.I181L [33] of 0.03 µg/mL and an ID50 assayed in A3R5.7 cells, Ce1086 B2.LucR.T2A.ecto [34] greater than 25 µg/mL. It also gave an ID50 assayed in A3R5.7 cells, Ce1176 A3.LucR.T2A.ecto [35] of 0.04 µg/mL, an ID50 assayed in A3R5.7 cells, Du151.2.LucR.T2A.ecto [36] of 1.51 µg/mL and an ID50 assayed in A3R5.7 cells, Du422.1.LucR.T2A.ecto [37] greater than 25 µg/mL. For the same substance, the ID50 assayed in A3R5.7 cells, RHPA.LucR.T2A.ecto [38] was 8.2 µg/mL, the ID50 assayed in A3R5.7 cells, SC22.3C2.LucR.T2A.ecto [39] was greater than 25 µg/mL and the ID50 assayed in TZM-bl cells, TH023.6.I181L [40] was greater than 25 µg/mL. It also gave an ID50 assayed in A3R5.7 cells, WITO.LucR.T2A.ecto [41] of 0.05 µg/mL and a % inhibition [42] of -11.2%.

Work on PG9 (antibody) yielded a pEC50 [7] of 9.52, a pEC50 [43] of 6.56 and a pEC50 [44] of 6.55.

Synagis (antibody) was tested, and the FITC MFI [45] was 3600 and the % of p24+ cells stained (background) [46] was 11%.

Substance ACT-1 (antibody) has a % inhibition [47] of 53.3% and a % inhibition [48] of 71.3%.

PG16 (antibody) gave a pEC50 [7] of 7.99.

CH59 (antibody) gave a pEC50 [49] of 10.40, a pEC50 [50] of 10.15 and a pEC50 [44] of less than 6.18. It also gave a pEC50 [51] of less than 6.18.

With A32 (antibody) the % positive cells [45] was 94% and the FITC MFI [45] was 19900.

From patent publication US9988424
